This experiment addresses T1, purified human MIB1 protein (human, UniProt Q86YT6 1-1006).
T1 construct: MIB1, human; source: E. coli BL21 (DE3), pET28a-sumo, purified (AKTA pure chromatography)
The experiment in a line: SPR; Biacore T200, CM5 chip, amine coupling in 10 mM sodium acetate pH 4.0 to 5000 RU, 25 °C, running buffer PBS, 0.05% Tween-20, 1% DMSO; multicycle kinetics, 1:1 Langmuir fit; which of the two proteins was immobilised is not stated. The following applies: both partners purified.

The results in this text go back to publication PMC12241633, “Irinotecan alleviates chemoresistance to anthracyclines through the inhibition of AARS1-mediated BLM lactylation and homologous recombination repair” (Signal Transduction and Targeted Therapy, 2025).

In general, Kd refers to the concentration at which binding is half-saturated. A low value points to higher affinity.

T1 sequence (Q86YT6 whole entry): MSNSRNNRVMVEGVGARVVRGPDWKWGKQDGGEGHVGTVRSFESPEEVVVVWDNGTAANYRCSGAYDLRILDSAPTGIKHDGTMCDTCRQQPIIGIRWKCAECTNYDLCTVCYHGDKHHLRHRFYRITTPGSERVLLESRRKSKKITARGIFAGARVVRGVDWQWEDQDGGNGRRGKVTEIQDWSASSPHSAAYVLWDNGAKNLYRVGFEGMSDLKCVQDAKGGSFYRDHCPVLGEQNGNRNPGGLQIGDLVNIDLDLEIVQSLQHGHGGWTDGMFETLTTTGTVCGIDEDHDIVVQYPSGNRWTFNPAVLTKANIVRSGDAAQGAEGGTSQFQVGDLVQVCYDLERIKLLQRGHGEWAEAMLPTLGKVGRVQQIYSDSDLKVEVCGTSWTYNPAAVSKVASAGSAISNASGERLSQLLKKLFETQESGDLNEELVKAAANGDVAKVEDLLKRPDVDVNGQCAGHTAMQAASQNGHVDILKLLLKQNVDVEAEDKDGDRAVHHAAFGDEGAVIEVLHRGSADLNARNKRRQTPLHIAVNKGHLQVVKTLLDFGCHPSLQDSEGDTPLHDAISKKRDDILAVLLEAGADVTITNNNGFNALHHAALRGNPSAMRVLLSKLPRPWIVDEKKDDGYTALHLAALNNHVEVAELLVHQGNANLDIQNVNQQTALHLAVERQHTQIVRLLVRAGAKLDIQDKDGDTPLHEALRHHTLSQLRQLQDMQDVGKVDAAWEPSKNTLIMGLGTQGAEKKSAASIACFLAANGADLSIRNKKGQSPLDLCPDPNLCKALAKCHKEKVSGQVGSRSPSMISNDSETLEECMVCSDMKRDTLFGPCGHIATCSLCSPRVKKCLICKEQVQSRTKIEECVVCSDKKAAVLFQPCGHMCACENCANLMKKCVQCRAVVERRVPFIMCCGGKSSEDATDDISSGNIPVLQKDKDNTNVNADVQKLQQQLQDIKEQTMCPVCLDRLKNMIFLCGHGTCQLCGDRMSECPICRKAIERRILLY

B1: purified human BLM-K24R protein (natural protein)
chain: not shown
notes: BLM, human, K24R; also called K24R BLM; BLM-K24R mutant; source: E. coli BL21 (DE3), pET28a-sumo, purified (AKTA pure chromatography)
B1: the affinity, expressed as Kd, was 0.0268 µM.

B2: purified human BLM-WT protein (natural protein)
chain: not shown
notes: BLM, human; also called WT BLM; source: E. coli BL21 (DE3), pET28a-sumo, purified (AKTA pure chromatography)
In turn, B2 yielded a dissociation constant Kd of 0.121 µM.
